In test [1] the target is T1, recombinant human CD59 (Homo sapiens, UniProt P13987).
T1 construct: purchased Abcam ab134887
T1 sequence (P13987 26-128): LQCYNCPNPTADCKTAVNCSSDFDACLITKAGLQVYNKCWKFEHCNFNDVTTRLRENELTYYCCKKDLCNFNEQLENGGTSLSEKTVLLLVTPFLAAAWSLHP
Put plainly: Surface Plasmon Resonance (SPR) direct binding assay. The settings on record: for kon: CD59 on CM5 chip, HBS-EP, 25 °C, 1:1 fit, average over tested peptide concentrations, read-out: ka. On the procedure:
(§1) The bicyclic peptides were tested for their ability to bind to recombinant human CD59. Direct binding assays were performed both using Surface Plasmon Resonance (SPR) and Biolayer Interferometry (BLI) label-free techniques (Figure 5). In both cases, after immobilisation of the protein on the sensor chips, the peptides were tested at increasing concentrations between 2.5 µM and 50 µM. […] Binding experiments were next repeated using BLI to confirm the recognition.
Assessment of binding kinetics and affinity between pm59 peptides and CD59 was performed at 25 °C using standard protocols on a BIACORE 3000 system (GE Healthcare, Little Chalfont, UK) with a research-grade CM5 (Carboxymethyl dextran) sensor chip and using commercial CD59 (ab134887) obtained from Abcam (Cambridge, UK). After chip preparation according to the manufacturer’s guidelines and surface activation, CD59 was immobilised onto the chip at a density of 4000 RU (0.5 mg/mL in 10 μL/min) on a NaAc buffer at pH 4.5. Bovine serum albumin (BSA) was immobilised on flow cell 2 to serve as reference. All surfaces were blocked with a 7′ injection of 1 M ethanolamine at pH 8.5.
The bicyclic acetylated CD59-targeting peptides were diluted in HBS-EP buffer (GE Healthcare, Little Chalfont, UK) and injected over the flow cells at a flow rate of 30 μL/min and concentrations ranging from 1 μM to 30 μM. Association of the complexes was allowed for 120 s and dissociation for 240 s. Regeneration of the surfaces was obtained by the sequential injection of 5 mM NaOH pulses (10 μL/min) until the established baseline was reached. Kinetics and binding data were fitted to a 1:1 stoichiometric interaction model using the global data analysis of the BIAevaluation software (GE Healthcare, Little Chalfont, UK) and Graphpad (Graphpad software, San Diego, CA, USA).

Test [2] deals with T1, recombinant human CD59. Put plainly: Biolayer Interferometry (BLI) direct binding assay. As to conditions: for kon / koff: CD59 on AR2G sensor, Kinetic Buffer, 1:1 fit; for kon: read-out: ka; for koff: read-out: kdis. How it is done: as §1
The BLI technique was used to assess the binding of the peptides towards the human recombinant CD59 protein (Abcam code ab134887). The protein was efficiently immobilized at 15 μg/mL in 10 mM NaAc at pH 4.5 on a AR2G sensor chip (Sartorius) according to the manufacturer’s instructions. An unmodified sensor chip was used as blank. The peptides were tested at increasing concentrations from 5 µM to 50 µM dissolved in Kinetic Buffer (PBS containing 0.02% Tween20, 0.1% BSA, 0.05% sodium azide) and using the same running buffer. All analyses were carried out at 25 °C; 10 mM NaOH was used to regenerate the chip surface. All mathematical manipulations were performed using the Octet Analysis Studio 12.2 software from Sartorius. Data were fitted assuming a 1:1 Langmuir binding model determining the KDs by the global analysis mode. Binding curves were exported and charted using GraphPad software, vers. 5.

In test [3] the target is T2, human recombinant CD59 protein (human, UniProt P13987 26-99).
T2 construct: CD59, human, recombinant commercial product (Abcam ab134887); also called commercial CD59 (ab134887); source: bought: Abcam (ab134887), recombinant
T2 sequence: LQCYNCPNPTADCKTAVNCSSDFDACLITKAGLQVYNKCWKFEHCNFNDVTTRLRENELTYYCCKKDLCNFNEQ
The test can be described thus: SPR; CD59 immobilised on a CM5 chip (4000 RU, NaAc buffer pH 4.5), BSA on the reference flow cell; peptides in HBS-EP injected at 30 μL/min, 25 °C, BIACORE 3000; 1:1 Langmuir model. As to conditions: both partners purified.

The target of test [4] is T2, human recombinant CD59 protein. The test can be described thus: BLI; CD59 immobilised at 15 μg/mL in 10 mM NaAc pH 4.5 on an AR2G sensor; peptides 5 µM to 50 µM in Kinetic Buffer (PBS, 0.02% Tween20, 0.1% BSA, 0.05% sodium azide), 25 °C; 1:1 Langmuir model. As to conditions: both partners purified.
Where [5] appears, read: 25 °C, average over tested peptide concentrations.

Starred links: 1 amine or outer side, 2 acyl side, 3 side chain; linkers in the order of their positions; H or OH if unused. Positions of bridges follow the written chain, without caps; N, C: chain ends. Residues, ends and D or L forms follow the SMILES beside them. TBMB = c1c(C[*:1])cc(C[*:3])cc1C[*:2]

With `CC(=O)N[C@H]1CSCc2cc3cc(c2)CSC[C@H](NC(=O)[C@H](CC(C)C)NC(=O)[C@H](Cc2ccc(O)cc2)NC(=O)[C@H](CCCCN)NC(=O)[C@H](CC(N)=O)NC1=O)C(=O)N[C@@H](CCC(N)=O)C(=O)N[C@@H](Cc1ccc(O)cc1)C(=O)N[C@@H](Cc1ccc(O)cc1)C(=O)N[C@@H](CO)C(=O)N[C@@H]([C@@H](C)O)C(=O)N[C@H](C(N)=O)CSC3` [pm59sh] (Ac-CNKYLCQYYSTC-NH2; linker 1-6-12 via TBMB), the kon amounted to 2930 M⁻¹ s⁻¹ in test [1] and 463 M⁻¹ s⁻¹ in test [2] (setting [5]). The koff in test [2] (setting [5]) was 0.00268 s⁻¹.
“Ac-CNNKYLACQQYYSTPC-NH2 (also: bicyclic or more (positions not given here)) [pm59ln, long bicyclic paratope-mimicking peptide of MB59 VL CDR1/CDR3, three cysteines linked by TBMB, N-acetylated, C-amidated]”: the “binding to CD59 (in words)” value in test [1] (immobilised CD59, peptide at increasing concentrations between 2.5 µM and 50 µM (Figure 5E)) is given as “No significant binding”; in test [2] (immobilised CD59, peptide at increasing concentrations between 2.5 µM and 50 µM (Figure 5F)) it was “No significant binding”.
On to `CC(=O)N[C@H]1CSCc2cc3cc(c2)CSC[C@H](NC(=O)[C@H](CC(C)C)NC(=O)[C@H](Cc2ccc(O)cc2)NC(=O)[C@H](CCCCN)NC(=O)[C@H](CC(N)=O)NC(=O)[C@H](CC(N)=O)NC1=O)C(=O)N[C@@H](CCC(N)=O)C(=O)N[C@@H](Cc1ccc(O)cc1)C(=O)N[C@@H](Cc1ccc(O)cc1)C(=O)N[C@@H](CO)C(=O)N[C@@H]([C@@H](C)O)C(=O)N1CCC[C@H]1C(=O)N[C@H](C(N)=O)CSC3` [pm59md] (Ac-CNNKYLCQYYSTPC-NH2; linker 1-7-14 via TBMB), for which the kon in test [1] is 2930 M⁻¹ s⁻¹; in test [2] (setting [5]) it was 919 M⁻¹ s⁻¹. In addition, in test [2] (setting [5]), the koff was 0.00333 s⁻¹. Further, in test [2] (OCTET R8, CD59 immobilised on AR2G sensor, Kinetic Buffer (PBS, 0.02% Tween20, 0.1% BSA, 0.05% sodium azide), 25 °C, 1:1 Langmuir fit, average over tested peptide concentrations), the Kd worked out at 4.39 µM.

B1: pm59sh, bicyclic paratope-mimicking peptide (short version) (peptide)
peptide: Ac-CNKYLCQYYSTC-NH2
modifications: linker 1-6-12 via TBMB
SMILES: CC(=O)N[C@H]1CSCc2cc3cc(c2)CSC[C@H](NC(=O)[C@H](CC(C)C)NC(=O)[C@H](Cc2ccc(O)cc2)NC(=O)[C@H](CCCCN)NC(=O)[C@H](CC(N)=O)NC1=O)C(=O)N[C@@H](CCC(N)=O)C(=O)N[C@@H](Cc1ccc(O)cc1)C(=O)N[C@@H](Cc1ccc(O)cc1)C(=O)N[C@@H](CO)C(=O)N[C@@H]([C@@H](C)O)C(=O)N[C@H](C(N)=O)CSC3
notes: designed from key residues of the CDR1 and CDR3 loops of the VL chain of the scFv MB59, flanking residues changed to cysteines; also called short version of pm59; source: synthetic peptide (Fmoc solid phase, bi-cyclised with TBMB, RP-HPLC purified)
As for B1, in test [3], the “KD at 5 μM” value worked out at 0.469 µM, the dissociation constant KD at 7.5 μM was found to be 1.24 µM, the “KD at 10 μM” value came to 1.64 µM and the “KD at 15 μM” value was 2.39 µM. In addition, in test [3], the “KD at 20 μM” value was found to be 2.61 µM, the dissociation constant KD at 25 μM was 4.13 µM, the dissociation constant KD at 30 μM amounted to 4.46 µM and the dissociation constant (Kd) was 2.42 µM. In test [3], the “ka at 5 μM” value is 7260 M⁻¹ s⁻¹, the “ka at 7.5 μM” value came out at 4210 M⁻¹ s⁻¹, the “ka at 10 μM” value was found to be 3010 M⁻¹ s⁻¹ and the “ka at 15 μM” value was determined as 2050 M⁻¹ s⁻¹. In test [3], the “ka at 20 μM” value was determined as 1560 M⁻¹ s⁻¹, the “ka at 25 μM” value stood at 1160 M⁻¹ s⁻¹, the “ka at 30 μM” value amounted to 1230 M⁻¹ s⁻¹ and the “kd at 5 μM” value stood at 0.0034 s⁻¹. Further, in test [3], the “kd at 7.5 μM” value was 0.00523 s⁻¹, the “kd at 10 μM” value worked out at 0.00493 s⁻¹, the “kd at 15 μM” value amounted to 0.0049 s⁻¹ and the “kd at 20 μM” value is 0.00408 s⁻¹. Also, in test [3], the “kd at 25 μM” value stood at 0.00481 s⁻¹, the “kd at 30 μM” value stood at 0.00548 s⁻¹ and the koff worked out at 0.00469 s⁻¹. In test [4], the equilibrium dissociation constant (KD) at 5 μM is 0.865 µM, the dissociation constant (KD) at 10 μM turned out to be 4.98 µM, the dissociation constant (KD) at 20 μM came out at 9.92 µM and the “KD at 30 μM” value was determined as 8.45 µM. In test [4], the “KD at 40 μM” value stood at 15 µM, the “KD at 50 μM” value was found to be 15.9 µM, the Kd is 9.18 µM and the “ka at 5 μM” value was found to be 1130 M⁻¹ s⁻¹. Also, in test [4], the “ka at 10 μM” value is 524 M⁻¹ s⁻¹, the “ka at 20 μM” value turned out to be 294 M⁻¹ s⁻¹, the “ka at 30 μM” value amounted to 451 M⁻¹ s⁻¹ and the “ka at 40 μM” value was 197 M⁻¹ s⁻¹. In test [4], the “ka at 50 μM” value amounted to 178 M⁻¹ s⁻¹.

B2: pm59md, bicyclic paratope-mimicking peptide (medium version) (peptide)
peptide: Ac-CNNKYLCQYYSTPC-NH2
modifications: linker 1-7-14 via TBMB
SMILES: CC(=O)N[C@H]1CSCc2cc3cc(c2)CSC[C@H](NC(=O)[C@H](CC(C)C)NC(=O)[C@H](Cc2ccc(O)cc2)NC(=O)[C@H](CCCCN)NC(=O)[C@H](CC(N)=O)NC(=O)[C@H](CC(N)=O)NC1=O)C(=O)N[C@@H](CCC(N)=O)C(=O)N[C@@H](Cc1ccc(O)cc1)C(=O)N[C@@H](Cc1ccc(O)cc1)C(=O)N[C@@H](CO)C(=O)N[C@@H]([C@@H](C)O)C(=O)N1CCC[C@H]1C(=O)N[C@H](C(N)=O)CSC3
notes: designed from key residues of the CDR1 and CDR3 loops of the VL chain of the scFv MB59, flanking residues changed to cysteines; also called medium version of pm59; source: synthetic peptide (Fmoc solid phase, bi-cyclised with TBMB, RP-HPLC purified)
Turning to B2, in test [3], the dissociation constant (KD) at 2.5 μM is 1.38 µM, the equilibrium dissociation constant (KD) at 5 μM was found to be 0.902 µM, the “KD at 10 μM” value was 1.09 µM and the equilibrium dissociation constant (KD) at 20 μM was determined as 3.1 µM. Besides, in test [3], the dissociation constant KD at 30 μM was determined as 4.39 µM, the equilibrium dissociation constant (KD) at 40 μM was 3.88 µM, the equilibrium dissociation constant (KD) at 50 μM was determined as 4.9 µM and the Kd turned out to be 3.13 µM. Moreover, in test [3], the “ka at 2.5 μM” value is 5960 M⁻¹ s⁻¹, the “ka at 5 μM” value worked out at 7080 M⁻¹ s⁻¹, the “ka at 10 μM” value is 4830 M⁻¹ s⁻¹ and the “ka at 20 μM” value was determined as 2290 M⁻¹ s⁻¹. In addition, in test [3], the “ka at 30 μM” value came out at 1270 M⁻¹ s⁻¹, the “ka at 40 μM” value was 1320 M⁻¹ s⁻¹, the “ka at 50 μM” value amounted to 980 M⁻¹ s⁻¹ and the “kd at 2.5 μM” value stood at 0.00814 s⁻¹. In test [3], the “kd at 5 μM” value came to 0.00638 s⁻¹, the “kd at 10 μM” value is 0.00526 s⁻¹, the “kd at 20 μM” value is 0.0071 s⁻¹ and the “kd at 30 μM” value stood at 0.00627 s⁻¹. Also, in test [3], the “kd at 40 μM” value was 0.00511 s⁻¹, the “kd at 50 μM” value stood at 0.0048 s⁻¹ and the koff is 0.00582 s⁻¹. Moreover, in test [4], the dissociation constant (KD) at 10 μM is 1.23 µM, the equilibrium dissociation constant (KD) at 20 μM stood at 4.12 µM, the “KD at 25 μM” value amounted to 6.52 µM and the equilibrium dissociation constant (KD) at 30 μM is 6.09 µM. For the same molecule, in test [4], the equilibrium dissociation constant (KD) at 40 μM was 8.38 µM, the “ka at 5 μM” value came out at 963 M⁻¹ s⁻¹, the “ka at 10 μM” value turned out to be 1560 M⁻¹ s⁻¹ and the “ka at 20 μM” value is 889 M⁻¹ s⁻¹. Besides, in test [4], the “ka at 25 μM” value was found to be 783 M⁻¹ s⁻¹, the “ka at 30 μM” value is 750 M⁻¹ s⁻¹ and the “ka at 40 μM” value worked out at 564 M⁻¹ s⁻¹.

These data come from PMC10218266, “Unveiling CD59-Antibody Interactions to Design Paratope-Mimicking Peptides for Complement Modulation” (International Journal of Molecular Sciences, 2023).
